Assay results: patent US20250136718A1 (MABWELL THERAPEUTICS, published 2025)
Read-outs that look alike come from different tables or passages of the source.

T1: mouse TMPRSS6 expressed on HEK293T cells, MoTMPRSS6-(His)6 (mouse, UniProt Q9DBI0 1-811)
T1 construct: HEK293T cells stably expressing the construct; also called murine TMPRSS6
T1 sequence: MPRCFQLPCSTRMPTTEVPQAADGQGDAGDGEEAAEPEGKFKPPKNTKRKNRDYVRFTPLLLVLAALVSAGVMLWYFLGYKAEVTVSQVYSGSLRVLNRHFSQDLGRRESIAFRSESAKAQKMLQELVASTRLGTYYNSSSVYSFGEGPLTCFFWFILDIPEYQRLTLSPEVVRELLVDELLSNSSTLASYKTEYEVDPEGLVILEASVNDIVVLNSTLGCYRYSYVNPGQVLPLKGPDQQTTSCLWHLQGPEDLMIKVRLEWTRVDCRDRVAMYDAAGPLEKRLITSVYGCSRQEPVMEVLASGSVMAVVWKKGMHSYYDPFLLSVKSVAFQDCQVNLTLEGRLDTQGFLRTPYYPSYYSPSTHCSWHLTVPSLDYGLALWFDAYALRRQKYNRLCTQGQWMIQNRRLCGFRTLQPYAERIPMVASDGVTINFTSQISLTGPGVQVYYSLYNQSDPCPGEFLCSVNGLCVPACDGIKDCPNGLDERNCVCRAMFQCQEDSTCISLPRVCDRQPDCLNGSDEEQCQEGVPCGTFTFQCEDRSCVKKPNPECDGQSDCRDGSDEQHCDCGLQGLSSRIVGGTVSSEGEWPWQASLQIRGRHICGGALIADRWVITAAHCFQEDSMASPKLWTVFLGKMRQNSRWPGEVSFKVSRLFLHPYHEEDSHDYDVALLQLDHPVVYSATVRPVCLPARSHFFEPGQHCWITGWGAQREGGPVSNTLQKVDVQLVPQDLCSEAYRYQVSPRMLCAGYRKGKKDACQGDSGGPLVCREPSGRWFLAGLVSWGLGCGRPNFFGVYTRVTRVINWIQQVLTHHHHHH

T2: mouse TMPRSS6 expressed on HEK293T cells, MoTMPRSS6-(His)6 (UniProt Q9DBI0 1-811)
T2 chain: T1 sequence

B1: humanized anti-TMPRSS6 antibody variant hzMWTx-003 Var (antibody, human IgG1, kappa, L234A L235A, V domains shown)
VH: QVQLVQSGAEVKKPGASVKVSCKASGFNIEDYYMHWVRQAPGQRLEWMGRIDPEDAETTYSPKFQGRVTIIPDTSANTAYMELSSLRSEDTAVYYCARSIYLDPMDYWGQGTLVTVSS
VL: DIQMTQSPKSLSASVGDRVTITCRASQDVTTALAWYQQKPGQSPKLLIYWATTRHSGVPSRFSGSGSGTDFTLTISSLQPEDFATYYCQQHYSTPYTFGQGTKLEIKR
notes: Human IgG1 / kappa
B2: humanized anti-TMPRSS6 antibody variant hzMWTx-001 Var (antibody, human IgG1, kappa, N297A, V domains shown)
VH: EVQLVQSGAEVKKPGASVKVSCKASGYTFTSYWITWVRQAPGQRLEWIGNIYPGSGSTYYNEKFKSKATITRDTSSRTAYMELSSLRSEDTAVYYCAPYDADYAMDYWGQGTLVTVSS
VL: DIQMTQSPSSLSASVGDRVTITCKASQDISNYLSWFQQKPGKAPKLLIYRANRLVEGVPSRFSGSGSGTDFTLTISSLQPEDFATYFCLQYDEFPLTFGGGTKVEIKR
notes: Human IgG1 / kappa
B3: MWTx-001 anti-TMPRSS6 monoclonal antibody (antibody, mouse IgG2a, kappa, V domains shown)
VH: QVQLQQPGAELAKPGASVKMSCKASGYTFTSYWITWVKQRPGQDLEWIGNIYPGSGSTYYNEKFKSKATLTVDTSSRTAYMQLSSLTSADSAVYYCAPYDSDYAMDYWGQGTSVTVSS
VL: DIKMTQSPSSMYASLGERVTITCKASQDINNYLSWFQQKPGKSPKTLIYRANRLVDGVPSRVSGSGSGQDYSLTISSLEYEDVGIYFCLQYDEFPLTFGAGTKLELKR
notes: Mouse monoclonal antibody from hybridoma (ATCC PTA-126759)
B4: humanized anti-TMPRSS6 antibody variant hzMWTx-002 Var (antibody, human IgG1, kappa, N297A, V domains shown)
VH: EVQLVQSGAEVKKPGASVKVSCKASGFNIKDYYIHWVRQATGQGLEWMGRIDPEDAESEYAPKFQGRVTITADTSTDTAYMELSSLRSEDTAVYYCTRGDSMMVTYFDYWGQGTLVTVSS
VL: DIQMTQSPSSLSASVGDRVTITCKASQDVSTAVAWYQQKPGKAPKLLIYWAFTRHTGVPSRFSGSGSGTDYALTISSLQPEDFATYYCQQHYRSPWTFGGGTKVEIKR
notes: Human IgG1 / kappa
B5: MWTx-003 anti-TMPRSS6 monoclonal antibody (antibody, mouse IgG2b, kappa, V domains shown)
VH: EVQLQQSGAELVKPGASVKLSCTASGFNIEDYYIHWVKERTEQGLEWIGRIDPEDGETTYAPQFQGKATIIPDTSSNTAYMQLSSLTSEDAAVYYCARSIYLDPMDYWGQGTSVTVSS
VL: DIVMTQSHKFMSTSVGDRVSITCKASQDVTTAVAWYQQKPGQSPKILIYWATTRHTGVPDRFTGSISGTTYILTISSVQAEDLALYYCQQHYSTPYTFGGGTKLEIKR
notes: Mouse monoclonal antibody from hybridoma (ATCC PTA-126761); The recombinant version r4K12B has the same HC and LC; also called r4K12B; recombinant MWTx-003
B6: MWTx-002 anti-TMPRSS6 monoclonal antibody (antibody, mouse IgG2b, kappa, V domains shown)
VH: EVQLQQSGAELVKPGASVKLSCTASGFNIKDYYIHWVKERTEQGLEWFGRIDPEDGESEYAPKFQGKATLTADTSSNTAYLQLSSLTSEDTAVYYCTRGDSMMVTYFDYWGQGTTLTVSS
VL: DIVMTQSHKFMSTSVGDRVSITCKASQDVSTAVAWYQQKPGQSPKLLIYWAFTRHTGVPDRFTSTGSGTDYALTISSVQAEDLALYYCQQHYRSPWTFGGGTKLEIKR
notes: Mouse monoclonal antibody from hybridoma (ATCC PTA-126760)

Experiments:
[1] = target: T1, mouse TMPRSS6 expressed on HEK293T …; test: summary of Example 4 (cell surface ELISA)
Protocol: (§1) HEK293T cells stably expressing mouse TMPRSS6 (generated by LakePharma Inc as described above, FIGS. 4J, 4L, 4N, 4P, 4R, 4T) or cynomolgus monkey (generated in house as described above, FIGS. 4K, 4M, 4O, 4Q, 4S, 4U) were fixed with methanol (100%), and washed with dPBS (Dulbecco's phosphate-buffered saline, Corning Cellgro) before incubation with various concentrations of anti-TMPRSS6 antibodies and their humanized variants diluted in BSA medium (DMEM+1% Pen/Strep+10 mM HEPES+1 mg/ml BSA (Sigma-Aldrich)). Purified mouse IgG (FIGS. 4J-4O) or Human IgG1 (FIGS. 4P-4U) was used as a control. After incubation, cells were washed with BSA medium and then incubated with goat anti-mouse (Invitrogen, FIGS. 4J-4O) or anti-human (Millipore, FIGS. 4P-4U) IgG conjugated with HRP as a 2° antibody. Finally, cells were washed with dPBS to remove unbound antibody and color developed with ELISA liquid substrate (Sigma-Aldrich), followed by stopping the reaction with addition of the same volume of […] 1M H₂SO₄. Bound antibody was measured by absorbance at OD₄₅₀ₙₘ.

[2] = target: T2, mouse TMPRSS6 expressed on HEK293T …; test: cell surface ELISA
[3] = target: T1, mouse TMPRSS6 expressed on HEK293T …; test: summary of Example 4 (FACS, cell surface ELISA)
Protocol: (§2) Selected anti-TMPRSS6 antibodies were tested to determine whether any are capable of binding to TMPRSS6 from mouse and/or cynomolgus monkey. HEK293T cells stably expressing human TMPRSS6 (HuTMPRSS6-(His)₆) (generated by LakePharma Inc as described above), HEK293T cells stably expressing mouse TMPRSS6 (MoTMPRSS6-(His)₆) (SEQ ID NO: 98) (generated by LakePharma Inc as described above) and HEK293T cells transiently expressing cynomolgus monkey TMPRSS6 (CynoTMPRSS6-(His)₆) (SEQ ID NO: 99) (generated in house) were collected. HEK293T cells stably expressing human TMPRSS6 were used as a positive control and HEK293T cells were used as a negative control (as described above). Cells were blocked with dPBS+3% BSA before incubation with anti-TMPRSS6 antibodies diluted in dPBS+3% BSA. After incubation, cells were washed with dPBS and followed by another incubation with goat anti-mouse IgG conjugated with AlexaFluor-488 as a 2° antibody (Invitrogen). At last, cells were washed with dPBS to remove unbound antibody, re-suspended with dPBS+1 mM EDTA, and then subjected to FACS analysis using a NOVOCYTE® Flow Cytometer (ACEA Biosciences, Inc., San Diego CA). Bound antibody was determined by excitation at 488 nm and measurement of emission (FITC-A) at 530 nm. Results for these assays are shown in histogram plots in FIGS. 4A-4I.
HEK293T cells stably expressing mouse TMPRSS6 (generated by LakePharma Inc as described above, FIGS. 4J, 4L, 4N, 4P, 4R, 4T) or cynomolgus monkey (generated in house as described above, FIGS. 4K, 4M, 4O, 4Q, 4S, 4U) were fixed with methanol (100%), and washed with dPBS (Dulbecco's phosphate-buffered saline, Corning Cellgro) before incubation with various concentrations of anti-TMPRSS6 antibodies and their humanized variants diluted in BSA medium (DMEM+1% Pen/Strep+10 mM HEPES+1 mg/ml BSA (Sigma-Aldrich)). Purified mouse IgG (FIGS. 4J-4O) or Human IgG1 (FIGS. 4P-4U) was used as a control.

[4] = target: T2, mouse TMPRSS6 expressed on HEK293T …; test: cell surface ELISA
[5] = target: T1, mouse TMPRSS6 expressed on HEK293T …; test: cell surface ELISA on methanol-fixed HEK293T cells expressing mouse TMPRSS6
Protocol: as §1

[6] = target: T1, mouse TMPRSS6 expressed on HEK293T …; test: FACS on HEK293T cells stably expressing MoTMPRSS6-(His)6
Protocol: as §2

| binding result [1] | EC50 [2] [µg/mL] | binding result [3] | EC50 [4] [µg/mL] | also measured | Binder |
| --- | --- | --- | --- | --- | --- |
| binds | 0.31 |  |  |  | B1 |
| binds | 0.03 |  |  |  | B2 |
|  |  | binds | 0.25 |  | B3 |
|  |  |  |  | binding result [5]: no binding | B4 |
|  |  | binds | 0.07 |  | B5 |
|  |  |  |  | binding result [6]: no binding | B6 |
